Assay [1] deals with Nα,Nε-diacetyl-L-Lys-D-Ala-D-Ala tripeptide. Briefly: ITC, tripeptide injected into 10 uM glycopeptide, 25 C, one-site model.
Assay [2] has the same target. Briefly: ITC, 25 C, one-site model. On the technique in general: In ITC the heat of successive injections is recorded.

The Kd is the equilibrium constant for the complex coming apart. Lower therefore signals higher affinity.

For keratinimicin A (peptide), the Kd in assay [1] was found to be 1700 nM. In assay [2], this substance yielded a TΔS of 0.85 kcal/mol, a ΔG of -7.9 kcal/mol and a ΔH of -7 kcal/mol.
Consider vancomycin (peptide), for which the Kd in assay [1] stood at 2700 nM. In assay [2], this substance registered a TΔS of -0.96 kcal/mol, a ΔG of -7.6 kcal/mol and a ΔH of -8.6 kcal/mol.
Taken in the same sequence, the figures for keratinimicin C (peptide) were 2800 nM, 0.2 kcal/mol, -7.6 kcal/mol and -7.4 kcal/mol.

For the origin of these results see patent US20230044467A1.
